# The supplement of paper PMC12042874
# ± gives the uncertainty stated by the source.
# Experiment: amyloid nucleation score (Sup35N fusion, yeast selection) (log enrichment); library NNK1; higher = more nucleation; inactive = no reads after selection
# Procedure, shortened: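 The nucleation score equals the log enrichment of output over input reads from DiMSum, centred on the mode score of non-aggregating sequences. It was computed only for sequences with 100 or more input reads. The reads came from Illumina sequencing of plasmid inserts from psi-negative yeast expressing Sup35N fused to peptides of 20 random codons, induced with 100 μM copper sulfate for 24 hours and grown 7 days at 30°C without adenine and uracil.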
row,Substance,amyloid nucleation score
1,PCDSICALFALSKHQVGGGW,0.324 ± 0.55
2,GTGLSENRLSKYCWALLWSY,inactive
3,RSCMRPFIGIMSSSPQIDKA,-0.53 ± 0.77
4,NPNFDRGQRSLQLDIMVKWR,1.97 ± 0.19
5,VGTFTGV,-0.189 ± 0.43
6,NRRVSLCRASCSIMRVKPLG,-0.261 ± 0.56
7,CQISI,-2.17 ± 2.4
8,PFYNSQ,-0.371 ± 0.41
9,PLVGWSRYSGAIPTSVMFLA,4.21 ± 0.071
10,ITTIMTAVTVSPPQSMWFVS,1.96 ± 0.25
11,YFRGNVNAWLLWSEICQVPF,0.677 ± 0.88
12,FSEVSNWVFLNIYYVAFF,0.934 ± 0.25
13,GLHREATSYLNRLFRINSG,-0.48 ± 0.56
14,GGYVIF,0.212 ± 0.56
15,HSYTTV,-0.905 ± 2.1
16,WYIMGFTNDRVLRNLMCYTC,0.21 ± 0.35
17,WLNWSSYRRTISKLVRGFFS,-0.295 ± 1.9
18,FNRSLLLALVSAFENGLLSW,0.51 ± 1.2
19,QYFKPGVASPSGDPVFKKKV,-0.404 ± 0.43
20,IRYKA,4.49 ± 0.11
21,DTRNPRITALRY,0.431 ± 0.39
22,YWLGLNMCVFSHPGCGLREI,6.64 ± 0.047
23,MRIIQCRRLFKVCCCFSVCL,2.28 ± 0.14
24,WDWGMCTCRWRDSAASWGKR,0.432 ± 0.34
25,RWYWIF,4.6 ± 0.069

row,Substance,amyloid nucleation score
1,WSDHDCIRPNFKYCMIRGRS,0.531 ± 0.3
2,PFVYGLCESFPFGCQYGWGC,inactive
3,CSFMCLARLVSYQIESLW,-0.062 ± 1.2
4,SVRFSIETISWRGAYNRGTR,1.98 ± 0.22
5,ITYSLSIYSSRAICLYVWGG,-0.119 ± 0.62
6,LLKSKRL,0.563 ± 0.43
7,HPLWGPYR,0.518 ± 0.59
8,ATRFIEESTL,-0.942 ± 0.68
9,PSIHTFCTAL,0.318 ± 0.33
10,SVLLKWMSYTKH,2.66 ± 0.15
11,NGCVLLMVMVLTVDIAL,2.78 ± 0.18
12,RSETGMYSAHACLL,-0.314 ± 1.7
13,GMDTGNITAQSMAGLPRRAS,-0.299 ± 0.49
14,VQVQVGSFELNSGQRRSVLK,-0.516 ± 1.3
15,THFRMGKSFVICLGLASYPL,0.374 ± 0.9
16,QYLFIYFLALS,-1.27 ± 0.53
17,RRLNCLILFKVVLLATIFCI,-1.42 ± 0.58
18,TTVGNVFSGVHV,0.027 ± 1.7
19,FEGLVQL,inactive
20,LRVTSFMIMQLDLECPRCQI,-0.007 ± 0.46
21,TAWGHV,0.411 ± 0.73
22,MRSMGLCTTGCQIDSRRVRW,0.947 ± 0.61
23,TSLYQAYSIYSFRYYIAYMC,0.232 ± 0.68
24,SHVEVDEEQVFSMSMVPTGE,-0.106 ± 0.46
25,VCVWCKISPSTYCALIFGDL,-0.181 ± 0.32

row,Substance,amyloid nucleation score
1,EDVAYYGNGFRLTYDRQITL,-0.733 ± 0.67
2,SHENSRSNNISSHQP,-0.513 ± 0.34
3,RHVNEQDILREQFLLMDFRK,0.753 ± 0.72
4,LTISRSYRPKWFSVSTGLDS,0.437 ± 1.4
5,RWSPV,1.47 ± 0.54
6,MHVQRVFTRCFKFSPQFVRH,-1.11 ± 0.36
7,MAFMHLIISYCRYIF,0.341 ± 0.74
8,IKVLSYISWCGGFEKRCVGG,1.05 ± 0.46
9,KQSCWALSYVYMTSHVLSGG,0.495 ± 1.4
10,LFEGEIIMK,inactive
11,QHEDISPPKLPIVNSAIPFV,0.335 ± 0.54
12,NNGPIPNILKEL,0.523 ± 0.41
13,SYAIPMVAIFQVEGHLGHPG,-0.211 ± 1.2
14,YGRRGNFPSRWTSQHADIKF,-0.308 ± 0.57
15,CYAPSFWTYWCLCSCMVDPN,5.8 ± 0.081
16,VRRQRKVVLPTLMGNASGRP,-0.183 ± 0.43
17,KKYLVNNYFLGFR,0.127 ± 0.25
18,SGCLLSDGEF,0.046 ± 0.32
19,WAYWRYVNENRSVCRRKVGF,-0.053 ± 0.31
20,QMVGESDECRCSLYSGQWKG,-0.186 ± 0.42
21,LNRRMNRCCTWLNMCADFFA,0.865 ± 0.75
22,CEWFPRHKMYLESVFVYKRL,-0.116 ± 0.56
23,LFFGSTLMDATFGYGDSDCN,0.828 ± 0.62
24,TCWHVSILN,0.136 ± 0.24
25,SPGMWGMGVDNSKSGRWALR,1.89 ± 0.28

row,Substance,amyloid nucleation score
1,TVLWWSSGDSGSCWYYCKIE,-0.177 ± 0.31
2,ILSSFILVANCWILFHPLFW,-0.411 ± 0.52
3,WRYKIIRSR,1.5 ± 0.4
4,KSTSQSYVIFFAQCFKYTTV,-0.592 ± 0.31
5,LWYTFMSLHLGTVLEVRK,inactive
6,LNKVWFSWSRDKVRYTGMLV,-0.857 ± 0.48
7,WYRLFALIGLAYLH,0.586 ± 0.56
8,NLYFIHVSRMIWSNSV,5.02 ± 0.075
9,YYYHVVWAQ,inactive
10,CLNWVCRRFWVSITHFWAWV,0.066 ± 0.51
11,TVFMVKDRVILRFGRGLKAW,-1.09 ± 1.1
12,AYNLNLYNRCQVLMLISSTR,4.91 ± 0.048
13,CVNFFGCHCVHN,7.735 ± 0.069
14,IICKVCLCVAPM,2.81 ± 0.19
15,LLVNGLMGMWPIFII,-1.03 ± 2.4
16,RWCGKPRICFSISEAVDKLH,-0.2 ± 0.21
17,IGYEGYPYASYGCRLLEQDA,0.168 ± 0.32
18,YSYSVAV,0.38 ± 0.51
19,DGSGRGRALTVTIDWAVQLV,0.26 ± 0.88
20,FSLRLRDSWWAHSGRLYAYK,-0.428 ± 0.56
21,RLFFSE,0.117 ± 0.32
22,LNLHS,-0.384 ± 1.2
23,GLVHEAHLDANKFFH,-0.139 ± 0.71
24,HSPLTRNVRSCVK,0.718 ± 0.36
25,RDSHSLMVVGFRYELSQGLK,0.496 ± 1.1

row,Substance,amyloid nucleation score
1,TLVYY,0.296 ± 0.47
2,LTPNVFAL,-0.345 ± 0.3
3,PTTEWKVVRT,0.808 ± 0.57
4,RYILLVYVTCDRKVRAMKGV,0.883 ± 0.33
5,RYLVVQLRMGLYLFAFKDPD,-0.686 ± 0.42
6,TLLYICSRNTKFNGLMWLGL,0.935 ± 0.21
7,RGNRHTSGNVTL,0.045 ± 0.35
8,RSISSVLVSIFTKMG,0.232 ± 0.35
9,EMSINLRNL,0.558 ± 0.16
10,DTVYLLGGCCLVVRLNLFIG,3.77 ± 0.15
11,LSTVRLFILEPLYGGPPRNG,-1.4 ± 1.4
12,APSNNFCNNGLMFRYVRPGD,2.81 ± 0.21
13,RTFHYAVNINRWLNKECGLH,-0.702 ± 1.7
14,TMVFCRI,0.23 ± 0.79
15,GNLGI,-0.31 ± 0.59
16,LLLLIN,-0.663 ± 1.7
17,DVNNIHLRKLTDCHI,1.61 ± 0.36
18,PTFNSAQTRSISYIKTDYLE,inactive
19,QQLYINC,0.199 ± 0.47
20,YVWKMIHVYGMTLSDFTFKV,5.19 ± 0.053
21,ICYKGREHKPRIVNIGSDVR,inactive
22,FRTYIFP,-0.091 ± 0.51
23,IDVWCESRVWRTWVYLGVRV,0.903 ± 0.56
24,RFCGVMESERTVIRKCREVG,0.095 ± 0.42
25,RADWYASAGKRCGHLQG,-0.148 ± 0.3

row,Substance,amyloid nucleation score
1,YSNWSCLYCSKSL,7.552 ± 0.053
2,RKNSNDEASS,-0.339 ± 0.31
3,KKFEVSL,0.159 ± 0.68
4,ALNFTYLVSSNKHRSED,5.12 ± 0.1
5,ERPSRN,0.22 ± 0.93
6,EYSVYDRYRPGNCCRTSRMD,0.251 ± 0.31
7,LRFVTINRRSVSVYSSNTKS,inactive
8,LIRHVLNLVL,-0.139 ± 0.77
9,RIVILLKVIYFQFYRLQYIT,0.03 ± 0.32
10,VEMNFSFVGR,2.62 ± 0.23
11,VVLGCDVMLYRISFPFMIHS,-0.036 ± 0.47
12,LFTSVYL,-0.173 ± 0.53
13,VYSGYSCCAWLLIWTSDGTD,8.255 ± 0.048
14,VGSSNTTNKYPGFCCWRFDG,0.444 ± 0.53
15,TRLRTYKCLQMGDYHVSSFK,0.672 ± 0.79
16,FAIFKSTIPINSVVWPIIMH,0.87 ± 0.3
17,VFRALKRVISRTYCMISFLK,0.458 ± 0.79
18,SEPEKG,-0.463 ± 0.43
19,EGTFLSGEHTFLNLGFSNRG,0.019 ± 0.6
20,VDQVQDNLKFEIGKYSYWYS,0.128 ± 0.27
21,CIIVNMFYWALFYFGSEMFS,0.738 ± 0.53
22,KGRSNLIADFGDLFGGLYTY,-0.57 ± 0.37
23,GLVFTLWSASRCFFLRKKLW,-0.083 ± 0.83
24,IMYWITGTIMCY,0.037 ± 0.16
25,RCGGM,-0.381 ± 0.64

row,Substance,amyloid nucleation score
1,SNLQWYRTKGGVGLVTVMWR,0.981 ± 0.16
2,RGLYFNALSR,-0.167 ± 0.43
3,LFSPMSILRFLFMYIAKVMD,0.213 ± 0.58
4,YIGVRCG,0.026 ± 0.51
5,VLCSMDSVGSSGASGIFTYM,-0.025 ± 0.4
6,WCLWCVQVRFFFNVLFFK,0.95 ± 0.44
7,LYTVTTKR,-0.119 ± 0.31
8,AMDMSADAGDSWNCGCQYSN,inactive
9,SSRSGPPCACRTRKLACGMM,0.145 ± 0.47
10,IVVKV,-0.035 ± 0.97
11,CSGMMARPWIYLVGVYKISN,2.26 ± 0.17
12,VFAVERCDFSLRPNVMLVSY,1.08 ± 0.92
13,WPTLIINDAFILRRRNMDSE,-0.223 ± 0.32
14,LYCFIMDFLLGFKHCMCKGV,1.55 ± 0.44
15,LCTLTVNYRSEHSYFYCINF,-0.319 ± 0.41
16,GNFLFCTVDRHLTGSCS,0.589 ± 0.47
17,REIIGRLLSVRTSLAEYNSG,-0.514 ± 0.91
18,GDLRSSILRLPTWRLWWITT,0.174 ± 0.29
19,FRVNCVAWDASGTYTYGR,0.525 ± 0.4
20,QNPNVDERNSTS,0.69 ± 0.52
21,SNQQLRWCECVYNGATGKVK,1.35 ± 0.47
22,SDGQNRTTMTYFPSVGWVSS,-1.98 ± 2.7
23,LPCMGKLIYVCRSRLEREQS,0.498 ± 0.62
24,QNFSRTGGIGIHKIFVGMGE,-1.13 ± 1.4
25,PMYLSSVVCFSKRHMPANRG,-0.138 ± 0.52
